Measured values from IntAct's records for PubMed 19571008.

B1: Non-homologous end-joining protein 1 (Saccharomyces cerevisiae), Q06148 (parent)
chain: MDSELKGQQLSDAEWCVKKINGEGNCLLLFLPMSSPTTIVMIVLVSLERLVPYVFKLSQTQLSQQCQSQGFTDSISLNLIKLKLMDILQAPQEINQIGLVDSNLVFSFDVSADITVSINSVPSHVTKDMFYMILQSLCMLLLKLVNLSTQYHYVQRDILNEKQKCLDFLLISLRDLDGGSKVISQWAPENSKNYESLQQCTDDDIIKKLLHKGKFQHQEFLADSLKTLLSLRNKFQDVSRFEESGELNKKERVRFPAVNHFYNDDFELQADPTNEARPNSRGKIKPKTDFKPKSRESSTSSQLRLENFSESEATPEKTKSSSSLVEEYPQKKRKFGKVRIKN

Variants of: B1
Details: with srs2_yeast SRS2, P12954
Sequence of srs2_yeast SRS2, P12954 (P12954 whole entry): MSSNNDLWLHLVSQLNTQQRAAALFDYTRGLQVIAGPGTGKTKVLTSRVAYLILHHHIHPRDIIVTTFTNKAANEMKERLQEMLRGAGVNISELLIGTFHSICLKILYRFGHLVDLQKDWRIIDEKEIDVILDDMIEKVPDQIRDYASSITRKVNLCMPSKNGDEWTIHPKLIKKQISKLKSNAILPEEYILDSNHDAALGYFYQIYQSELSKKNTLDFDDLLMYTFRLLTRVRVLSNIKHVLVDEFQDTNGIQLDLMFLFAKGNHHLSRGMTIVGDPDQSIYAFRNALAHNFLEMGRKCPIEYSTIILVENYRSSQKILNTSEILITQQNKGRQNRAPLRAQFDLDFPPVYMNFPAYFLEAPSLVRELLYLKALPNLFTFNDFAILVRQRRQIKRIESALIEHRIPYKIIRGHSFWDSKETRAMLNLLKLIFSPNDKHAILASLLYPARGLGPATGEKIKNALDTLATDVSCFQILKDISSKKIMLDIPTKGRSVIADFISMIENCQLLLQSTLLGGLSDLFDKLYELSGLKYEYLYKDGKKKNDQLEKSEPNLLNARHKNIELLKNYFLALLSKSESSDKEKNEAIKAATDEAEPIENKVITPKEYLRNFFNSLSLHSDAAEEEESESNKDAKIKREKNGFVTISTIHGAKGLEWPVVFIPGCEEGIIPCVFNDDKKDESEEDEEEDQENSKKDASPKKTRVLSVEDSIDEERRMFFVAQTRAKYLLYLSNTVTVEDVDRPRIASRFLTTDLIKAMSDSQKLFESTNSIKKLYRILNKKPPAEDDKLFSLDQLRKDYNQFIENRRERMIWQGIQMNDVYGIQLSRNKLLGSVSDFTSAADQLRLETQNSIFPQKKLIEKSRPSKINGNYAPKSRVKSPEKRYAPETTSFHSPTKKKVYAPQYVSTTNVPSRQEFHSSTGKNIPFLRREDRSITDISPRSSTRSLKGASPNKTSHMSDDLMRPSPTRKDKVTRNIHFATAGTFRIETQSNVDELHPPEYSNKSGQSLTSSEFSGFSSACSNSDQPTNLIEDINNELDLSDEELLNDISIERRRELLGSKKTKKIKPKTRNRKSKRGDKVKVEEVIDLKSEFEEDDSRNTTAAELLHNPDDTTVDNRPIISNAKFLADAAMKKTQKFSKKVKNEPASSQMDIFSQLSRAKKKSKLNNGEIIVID

Row | Variant | effect of a mutation on the interaction
1 | MDSELKGQQLSDAEWCVKKINGEGNCLLLFLPMSSPTTIVMIVLVSLERLVPYVFKLSQTQLSQQCQSQGFTDSISLNLIKLKLMDILQAPQEINQIGLVDSNLVFSFDVSADITVSINSVPSHVTKDMFYMILQSLCMLLLKLVNLSTQYHYVQRDILNEKQKCLDFLLISLRDLDGGSKVISQWAPENSKNYESLQQCTDDDIIKKLLHKGKFQHQEFLADSLKTLLSLRNKFQDVSRFEESGELNKKERVRFPAVNHFYNDDFELQADPTNEARPNSRGKIKPKTDFKPKSREASTSSQLRLENFSESEATPEKTKSSSSLVEEYPQKKRKFGKVRIKN [S297A] | disrupting interaction
2 | MDSELKGQQLSDAEWCVKKINGEGNCLLLFLPMSSPTTIVMIVLVSLERLVPYVFKLSQTQLSQQCQSQGFTDSISLNLIKLKLMDILQAPQEINQIGLVDSNLVFSFDVSADITVSINSVPSHVTKDMFYMILQSLCMLLLKLVNLSTQYHYVQRDILNEKQKCLDFLLISLRDLDGGSKVISQWAPENSKNYESLQQCTDDDIIKKLLHKGKFQHQEFLADSLKTLLSLRNKFQDVSRFEESGELNKKERVRFPAVNHFYNDDFELQADPTNEARPNSRGKIKPKTDFKPKSRESATSSQLRLENFSESEATPEKTKSSSSLVEEYPQKKRKFGKVRIKN [S298A] | disrupting interaction
3 | MDSELKGQQLSDAEWCVKKINGEGNCLLLFLPMSSPTTIVMIVLVSLERLVPYVFKLSQTQLSQQCQSQGFTDSISLNLIKLKLMDILQAPQEINQIGLVDSNLVFSFDVSADITVSINSVPSHVTKDMFYMILQSLCMLLLKLVNLSTQYHYVQRDILNEKQKCLDFLLISLRDLDGGSKVISQWAPENSKNYESLQQCTDDDIIKKLLHKGKFQHQEFLADSLKTLLSLRNKFQDVSRFEESGELNKKERVRFPAVNHFYNDDFELQADPTNEARPNSRGKIKPKTDFKPKSREAATSSQLRLENFSESEATPEKTKSSSSLVEEYPQKKRKFGKVRIKN [S297A;S298A] | disrupting interaction
